Measured values taken from IntAct's records for PubMed 24980795.

B1: Serine/threonine-protein kinase PLK4 (Mus musculus), Q64702-1 (parent)
chain: MAACIGERIEDFKVGNLLGKGSFAGVYRAESIHTGLEVAIKMIDKKAMYKAGMVQRVQNEVKIHCQLKHPSVLELYNYFEDNNYVYLVLEMCHNGEMNRYLKNRMKPFSEREARHFMHQIITGMLYLHSHGILHRDLTLSNILLTRNMNIKIADFGLATQLNMPHEKHYTLCGTPNYISPEIATRSAHGLESDIWSLGCMFYTLLIGRPPFDTDTVKNTLNKVVLADYEMPAFLSREAQDLIHQLLRRNPADRLSLSSVLDHPFMSRNPSPKSKDVGTVEDSMDSGHATLSTTITASSGTSLSGSLLDRRLLVGQPLPNKITVFQKNKNSSDFSSGDGSNFCTQWGNPEQEANSRGRGRVIEDAEERPHSRYLRRAHSSDRASPSNQSRAKTYSVERCHSVEMLSKPRRSLDENQHSSNHHCLGKTPFPFADQTPQMEMVQQWFGNLQMNAHLGETNEHHTVSPNRDFQDYPDLQDTLRNAWTDTRASKNADTSANVHAVKQLSAMKYMSAHHHKPEVMPQEPGLHPHSEQSKNRSMESTLGYQKPTLRSITSPLIAHRLKPIRQKTKKAVVSILDSEEVCVELLRECASEGYVKEVLQISSDGTMITVYYPNDGRGFPLADRPPLPTDNISRYSFDNLPEKYWRKYQYASRFIQLVRSKTPKITYFTRYAKCILMENSPGADFEVWFYDGAKIHKTENLIHIIEKTGISYNLKNENEVTSLKEEVKVYMDHANEGHRICLSLESVISEEEKRSRGSSFFPIIVGRKPGNTSSPKALSAPPVDPSCCKGEQASASRLSVNSAAFPTQSPGLSPSTVTVEGLGHTATATGTGVSSSLPKSAQLLKSVFVKNVGWATQLTSGAVWVQFNDGSQLVVQAGVSSISYTSPDGQTTRYGENEKLPEYIKQKLQCLSSILLMFSNPTPNFQ
B2: Probable serine/threonine-protein kinase zyg-1 (Caenorhabditis elegans), Q9GT24 (parent)
chain: MSGGKSGSRLSAYSHLKEIGKGGFGVVYAAQRENGEKVAIKRIDKKVPKNRVWTEIQTMKELKKSKYVVEFYEDFVEDGYTYIVMELCEGGSLQAYVREHGALDDATAVHVLRQLISAVSFMHRVNVIHRDLSAGNVFIKDSKKKKMTVKLGDFGLATTLGRGETTCTIVGTPGFIAPQVYDQEYTQSADVYSLGAVLYTMLTARNPPPKGLPPTCGMSPNAARLVEQMMDTDAKKRIPLTQIVLSEFMYENTNENAVIFSREHSRDGRRQRSREPVRSSRDDRSRDGRALIRSSSQPAHSGRAPLSNRPIHDRMPSTSSRGFDSERGRERDRDSGRGTVPPSREDRNRSQLWPIRMDRLEGQRVCTAGGRYIVELDTRCRFEVAAQGNFVKRILIVEVDEMVQTVYVHRIPDRTVRGRNGEEELITLTNNPFVYTSYSQMPKEVQNDYMRLQKMVAVTISGRVAKVTFRRPSQFPDAQAQLMENGDLRIKLPRSVIVRKMDNGEIFNCIDGIATQKQAVSGITLTKVNEVYKYLIRFEQCLNGMDRGMVCFPIVFSAGTNMVGSSPSSLMPSGSSQTSRFPFSNLSNNQPSLVPHSAPFLTKPTSSQRASSANVQRRVSTDENSSPSVAPSKYKIKIDPTTQKVRSIQATDGRVLRCSTSKADQFIFTDPAIRPDDQRFMRTDRVPDRASEMLHTLCERMRKLHQ
partner: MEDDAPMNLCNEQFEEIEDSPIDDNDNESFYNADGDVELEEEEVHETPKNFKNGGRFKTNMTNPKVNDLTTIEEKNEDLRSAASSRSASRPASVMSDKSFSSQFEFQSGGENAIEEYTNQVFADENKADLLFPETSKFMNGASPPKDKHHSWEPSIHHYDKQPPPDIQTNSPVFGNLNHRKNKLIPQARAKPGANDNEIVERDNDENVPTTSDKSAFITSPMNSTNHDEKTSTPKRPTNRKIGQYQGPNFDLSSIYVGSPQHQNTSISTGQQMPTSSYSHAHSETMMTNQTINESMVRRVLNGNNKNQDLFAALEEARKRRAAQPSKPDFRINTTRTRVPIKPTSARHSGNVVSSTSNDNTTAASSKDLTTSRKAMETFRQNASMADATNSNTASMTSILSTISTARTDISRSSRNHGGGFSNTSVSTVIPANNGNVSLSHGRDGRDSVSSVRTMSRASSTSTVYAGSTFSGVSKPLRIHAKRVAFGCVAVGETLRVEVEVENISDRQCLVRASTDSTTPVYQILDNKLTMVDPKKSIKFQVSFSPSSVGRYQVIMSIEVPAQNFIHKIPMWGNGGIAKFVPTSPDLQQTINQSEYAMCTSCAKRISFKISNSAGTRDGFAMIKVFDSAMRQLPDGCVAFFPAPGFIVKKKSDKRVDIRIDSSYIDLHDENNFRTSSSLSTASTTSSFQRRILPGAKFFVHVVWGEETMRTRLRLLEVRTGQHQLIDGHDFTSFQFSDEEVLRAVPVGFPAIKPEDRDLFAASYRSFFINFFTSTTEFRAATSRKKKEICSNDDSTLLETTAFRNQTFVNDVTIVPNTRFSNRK
B3: Spindle-defective protein 2 (Caenorhabditis elegans), P91870 (parent)
chain: B2 partner
partner: B2 chain

Variants of: B1
Details: with Cep192, E9Q4Y4
Sequence of Cep192, E9Q4Y4 (E9Q4Y4 entry or part of it): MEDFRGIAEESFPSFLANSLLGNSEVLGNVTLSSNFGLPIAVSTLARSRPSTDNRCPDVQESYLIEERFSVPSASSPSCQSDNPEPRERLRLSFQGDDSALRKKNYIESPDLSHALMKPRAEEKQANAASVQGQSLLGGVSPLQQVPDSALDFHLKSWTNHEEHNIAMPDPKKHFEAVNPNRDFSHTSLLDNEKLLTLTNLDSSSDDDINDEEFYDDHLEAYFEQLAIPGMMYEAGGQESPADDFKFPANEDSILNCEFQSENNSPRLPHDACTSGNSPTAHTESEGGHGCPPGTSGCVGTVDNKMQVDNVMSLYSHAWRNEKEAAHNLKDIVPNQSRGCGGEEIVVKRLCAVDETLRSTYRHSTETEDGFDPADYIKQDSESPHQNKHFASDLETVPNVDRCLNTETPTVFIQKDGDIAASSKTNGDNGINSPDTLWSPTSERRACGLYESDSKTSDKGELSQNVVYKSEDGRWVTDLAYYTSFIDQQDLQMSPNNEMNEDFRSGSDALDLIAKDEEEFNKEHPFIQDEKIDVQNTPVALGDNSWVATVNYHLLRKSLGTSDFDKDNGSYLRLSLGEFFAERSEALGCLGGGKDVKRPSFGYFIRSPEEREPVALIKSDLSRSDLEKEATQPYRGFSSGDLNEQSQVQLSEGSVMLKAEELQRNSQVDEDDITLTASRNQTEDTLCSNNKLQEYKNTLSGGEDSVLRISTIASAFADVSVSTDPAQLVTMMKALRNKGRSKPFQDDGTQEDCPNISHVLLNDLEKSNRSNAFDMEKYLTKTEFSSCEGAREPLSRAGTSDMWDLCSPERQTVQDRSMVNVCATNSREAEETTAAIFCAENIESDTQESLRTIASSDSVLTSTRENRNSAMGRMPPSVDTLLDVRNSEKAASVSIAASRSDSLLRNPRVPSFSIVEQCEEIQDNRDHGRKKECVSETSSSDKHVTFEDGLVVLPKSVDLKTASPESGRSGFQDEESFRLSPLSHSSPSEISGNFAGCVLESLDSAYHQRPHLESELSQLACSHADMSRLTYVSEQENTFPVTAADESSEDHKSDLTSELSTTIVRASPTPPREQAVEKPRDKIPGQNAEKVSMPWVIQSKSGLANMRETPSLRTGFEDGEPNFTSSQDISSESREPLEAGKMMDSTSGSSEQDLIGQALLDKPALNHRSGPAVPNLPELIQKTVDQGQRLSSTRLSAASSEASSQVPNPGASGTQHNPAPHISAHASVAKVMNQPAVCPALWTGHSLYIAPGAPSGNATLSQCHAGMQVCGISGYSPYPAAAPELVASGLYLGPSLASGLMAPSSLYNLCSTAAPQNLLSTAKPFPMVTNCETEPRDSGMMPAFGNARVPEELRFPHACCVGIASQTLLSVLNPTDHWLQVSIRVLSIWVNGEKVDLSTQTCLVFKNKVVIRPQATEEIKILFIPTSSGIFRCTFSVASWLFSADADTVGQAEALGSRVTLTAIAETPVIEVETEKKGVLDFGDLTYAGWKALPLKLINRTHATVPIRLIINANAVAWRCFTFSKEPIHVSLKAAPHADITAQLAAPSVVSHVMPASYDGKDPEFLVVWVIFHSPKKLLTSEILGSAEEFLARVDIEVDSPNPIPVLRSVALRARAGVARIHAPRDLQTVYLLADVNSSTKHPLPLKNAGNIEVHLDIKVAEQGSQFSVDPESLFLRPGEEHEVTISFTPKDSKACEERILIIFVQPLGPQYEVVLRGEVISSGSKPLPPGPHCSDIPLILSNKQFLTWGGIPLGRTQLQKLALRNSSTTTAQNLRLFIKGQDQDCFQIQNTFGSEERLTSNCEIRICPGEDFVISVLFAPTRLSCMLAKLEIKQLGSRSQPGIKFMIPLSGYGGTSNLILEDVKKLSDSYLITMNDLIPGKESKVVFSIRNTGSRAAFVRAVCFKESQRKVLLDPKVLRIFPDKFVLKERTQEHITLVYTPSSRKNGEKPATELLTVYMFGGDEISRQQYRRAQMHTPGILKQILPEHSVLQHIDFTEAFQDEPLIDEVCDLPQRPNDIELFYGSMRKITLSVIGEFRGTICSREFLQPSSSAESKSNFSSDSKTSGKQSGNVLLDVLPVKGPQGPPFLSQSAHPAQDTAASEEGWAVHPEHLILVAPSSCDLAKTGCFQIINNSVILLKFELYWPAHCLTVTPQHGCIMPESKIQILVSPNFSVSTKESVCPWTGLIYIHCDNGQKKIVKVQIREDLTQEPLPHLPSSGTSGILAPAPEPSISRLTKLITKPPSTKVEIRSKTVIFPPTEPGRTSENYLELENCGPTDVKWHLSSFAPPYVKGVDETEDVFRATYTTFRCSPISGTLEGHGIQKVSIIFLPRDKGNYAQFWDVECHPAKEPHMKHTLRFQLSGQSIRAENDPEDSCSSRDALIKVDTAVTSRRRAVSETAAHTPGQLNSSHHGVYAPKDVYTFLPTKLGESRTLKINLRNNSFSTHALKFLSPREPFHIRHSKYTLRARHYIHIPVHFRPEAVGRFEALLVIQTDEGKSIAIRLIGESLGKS

| Variant | effect of a mutation on the interaction |
| --- | --- |
| K660E | increasing interaction strength |
| K693E | decreasing interaction strength |
| R766E;K767E | decreasing interaction strength |
| K672E | decreasing interaction strength |
| R564E;K566E | increasing interaction strength |

Variants of: B1
Details: with ce152_mouse Cep152, A2AUM9
Sequence of ce152_mouse Cep152, A2AUM9 (A2AUM9 whole entry): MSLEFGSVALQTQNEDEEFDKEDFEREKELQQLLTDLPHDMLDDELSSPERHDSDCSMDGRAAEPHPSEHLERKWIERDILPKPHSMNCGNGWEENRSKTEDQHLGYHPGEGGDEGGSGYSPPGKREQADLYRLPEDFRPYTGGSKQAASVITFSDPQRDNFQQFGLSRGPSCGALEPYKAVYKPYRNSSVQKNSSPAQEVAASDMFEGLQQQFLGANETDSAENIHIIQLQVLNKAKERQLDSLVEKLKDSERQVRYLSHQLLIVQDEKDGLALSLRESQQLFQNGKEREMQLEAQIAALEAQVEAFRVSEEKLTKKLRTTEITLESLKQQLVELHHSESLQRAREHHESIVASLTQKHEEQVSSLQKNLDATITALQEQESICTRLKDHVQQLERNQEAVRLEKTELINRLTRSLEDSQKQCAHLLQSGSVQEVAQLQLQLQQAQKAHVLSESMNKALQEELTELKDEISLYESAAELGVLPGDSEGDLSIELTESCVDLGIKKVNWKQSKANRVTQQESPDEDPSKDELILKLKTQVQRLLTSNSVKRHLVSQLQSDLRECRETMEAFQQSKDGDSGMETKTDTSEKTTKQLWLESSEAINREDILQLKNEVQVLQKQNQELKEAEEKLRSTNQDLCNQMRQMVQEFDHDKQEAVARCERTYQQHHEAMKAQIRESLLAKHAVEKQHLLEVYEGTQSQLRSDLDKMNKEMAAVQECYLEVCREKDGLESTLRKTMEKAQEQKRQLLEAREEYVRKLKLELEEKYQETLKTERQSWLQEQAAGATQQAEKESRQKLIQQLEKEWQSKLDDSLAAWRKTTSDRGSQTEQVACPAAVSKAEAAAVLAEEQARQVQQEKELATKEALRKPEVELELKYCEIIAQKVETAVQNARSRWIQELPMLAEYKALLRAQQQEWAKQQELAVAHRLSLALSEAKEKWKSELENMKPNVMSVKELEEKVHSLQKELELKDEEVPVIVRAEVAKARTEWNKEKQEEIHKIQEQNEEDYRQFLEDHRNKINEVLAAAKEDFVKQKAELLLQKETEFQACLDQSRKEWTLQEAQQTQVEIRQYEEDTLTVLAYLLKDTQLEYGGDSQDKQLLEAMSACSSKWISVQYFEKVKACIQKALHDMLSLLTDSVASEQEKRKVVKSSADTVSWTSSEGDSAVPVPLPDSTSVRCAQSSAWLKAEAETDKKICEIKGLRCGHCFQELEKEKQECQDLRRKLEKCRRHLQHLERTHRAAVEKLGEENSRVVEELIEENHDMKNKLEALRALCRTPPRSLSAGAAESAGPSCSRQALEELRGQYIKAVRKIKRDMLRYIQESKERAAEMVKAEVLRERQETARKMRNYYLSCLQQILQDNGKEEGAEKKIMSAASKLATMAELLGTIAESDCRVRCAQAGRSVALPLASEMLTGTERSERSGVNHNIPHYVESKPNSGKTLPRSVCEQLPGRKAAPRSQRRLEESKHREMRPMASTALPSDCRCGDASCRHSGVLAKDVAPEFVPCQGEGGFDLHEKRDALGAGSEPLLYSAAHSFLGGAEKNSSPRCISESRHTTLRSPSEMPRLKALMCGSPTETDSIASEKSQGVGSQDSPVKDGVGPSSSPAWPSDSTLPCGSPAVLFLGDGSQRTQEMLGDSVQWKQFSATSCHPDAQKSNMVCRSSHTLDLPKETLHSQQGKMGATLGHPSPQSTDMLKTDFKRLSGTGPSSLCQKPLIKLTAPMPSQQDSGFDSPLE

| Variant | effect of a mutation on the interaction |
| --- | --- |
| K660E | decreasing interaction strength |
| K693E | decreasing interaction strength |
| R766E;K767E | decreasing interaction strength |
| K672E | decreasing interaction strength |
| R652E | decreasing interaction strength |
| K568E;K569E | increasing interaction strength |

Variants of: B2
Details: with spd2_caeel spd-2, P91870

| Variant | effect of a mutation on the interaction |
| --- | --- |
| R471E | decreasing interaction strength |
| K500E | disrupting interaction strength |
| R470E;R471E | disrupting interaction strength |
| R463E | disrupting interaction strength |
| K454E | decreasing interaction strength |
| R489E;K491E | disrupting interaction strength |
| R470E | decreasing interaction strength |

Variants of: B3
Details: with zyg1_caeel zyg-1, Q9GT24

| Variant | effect of a mutation on the interaction |
| --- | --- |
| E38K;E40K;E41K;E42K;E43K | disrupting interaction strength |
| E12K;E15K;E16K;E18K;D19K | disrupting interaction strength |

Variants of: B3
Details: with zyg1_caeel zyg-1, Q9GT24
Remark: another data set of the same source

| Variant | effect of a mutation on the interaction |
| --- | --- |
| E38K;E40K;E41K;E42K;E43K | decreasing interaction strength |
| D26K;E28K;D34K;D36K | decreasing interaction strength |
